Measured values from IntAct's records for PubMed 22252131.
One block for each substance: values may come before it.

How the values were obtained:
hakai_mouse Cbll1 [1] = target: hakai_mouse Cbll1 (UniProt Q9JIY2)
hakai_mouse Cbll1 [2] = target: hakai_mouse Cbll1 (UniProt Q9JIY2); remark: listed apart in the source
hakai_mouse Cbll1 [3] = target: hakai_mouse Cbll1 (UniProt Q9JIY2); remark: listed apart in the source
hakai_mouse Cbll1 [4] = target: hakai_mouse Cbll1 (UniProt Q9JIY2); remark: listed apart in the source

Chain of hakai_mouse Cbll1 (Q9JIY2 whole entry): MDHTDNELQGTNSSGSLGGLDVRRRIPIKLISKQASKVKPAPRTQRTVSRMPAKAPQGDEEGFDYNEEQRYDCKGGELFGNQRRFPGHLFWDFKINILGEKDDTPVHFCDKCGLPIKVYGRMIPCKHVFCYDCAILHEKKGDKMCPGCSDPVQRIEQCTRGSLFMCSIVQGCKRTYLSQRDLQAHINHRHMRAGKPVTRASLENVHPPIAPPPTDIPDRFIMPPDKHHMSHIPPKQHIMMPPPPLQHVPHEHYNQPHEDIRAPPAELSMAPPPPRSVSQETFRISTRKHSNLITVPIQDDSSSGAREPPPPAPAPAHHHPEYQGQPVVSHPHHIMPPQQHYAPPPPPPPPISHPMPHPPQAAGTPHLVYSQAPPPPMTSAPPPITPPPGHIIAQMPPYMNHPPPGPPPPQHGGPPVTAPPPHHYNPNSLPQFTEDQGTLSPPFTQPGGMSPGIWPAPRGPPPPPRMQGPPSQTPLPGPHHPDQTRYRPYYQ
Chain of Src substrate cortactin (Mus musculus), Q60598 E478A (Q60598 whole entry E478A): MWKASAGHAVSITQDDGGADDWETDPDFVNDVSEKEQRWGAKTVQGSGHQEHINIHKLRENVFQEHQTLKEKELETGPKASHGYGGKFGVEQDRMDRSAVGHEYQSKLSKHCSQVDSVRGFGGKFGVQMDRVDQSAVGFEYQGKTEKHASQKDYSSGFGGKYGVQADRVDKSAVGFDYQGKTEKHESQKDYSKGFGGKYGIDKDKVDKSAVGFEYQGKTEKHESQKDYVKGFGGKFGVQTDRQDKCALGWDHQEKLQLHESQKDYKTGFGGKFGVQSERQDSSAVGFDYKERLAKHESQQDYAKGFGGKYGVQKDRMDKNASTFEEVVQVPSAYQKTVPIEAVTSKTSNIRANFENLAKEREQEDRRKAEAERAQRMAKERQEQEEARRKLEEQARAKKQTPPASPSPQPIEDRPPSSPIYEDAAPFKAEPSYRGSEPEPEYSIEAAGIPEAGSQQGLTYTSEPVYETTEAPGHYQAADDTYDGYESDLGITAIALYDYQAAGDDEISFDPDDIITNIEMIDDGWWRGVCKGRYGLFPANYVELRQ
Chain of Src substrate cortactin (Mus musculus), Q60598 Y482F (Q60598 whole entry Y482F): as the sequence (Q60598 whole entry E478A) above, with A478E, Y482F counted along it
Chain of Src substrate cortactin (Mus musculus), Q60598 D480A (Q60598 whole entry D480A): as the sequence (Q60598 whole entry E478A) above, with A478E, D480A counted along it

- effect of a mutation on the interaction (hakai_mouse Cbll1 [1]): decreasing interaction
Substance: Src substrate cortactin (Mus musculus), Q60598 D480A

- effect of a mutation on the interaction (hakai_mouse Cbll1 [2]): decreasing interaction
Substance: Src substrate cortactin (Mus musculus), Q60598 E478A

- effect of a mutation on the interaction (hakai_mouse Cbll1 [3]): disrupting interaction
Substance: Src substrate cortactin (Mus musculus), Q60598 E486A

- effect of a mutation on the interaction (hakai_mouse Cbll1 [4]): disrupting interaction
Substance: Src substrate cortactin (Mus musculus), Q60598 Y482F
